Test results reported in patent US20240382677A1.

Columns and labels:
[1] = biological target: full length human PD-1 on HEK293/hPD-1 cells (human); experiment: FACS, 100 nM antibody
[2] = biological target: full length human PD-1 on HEK293/hPD-1 cells (human); experiment: FACS, 100 nM antibody, HEK293/hPD-1 cells
[3] = biological target: full length human PD-1 on HEK293/hPD-1 cells (human); experiment: FACS dose response, HEK293/hPD-1 cells; EC50 Inconclusive
[4] = biological target: full length human PD-1 on HEK293/hPD-1 cells (human); experiment: FACS dose response, HEK293/hPD-1 cells
[5] = biological target: full length human PD-1 on HEK293/hPD-1 cells (human); experiment: FACS dose response, HEK293/hPD-1 cells; No EC50 determined

Binder	ratio of HEK293/hPD-1 to HEK293 parental cells [1]	MFI [2]	Max Geom. Mean MFI @ 100 nM [3]	EC50 [4]	Max Geom. Mean MFI @ 100 nM [4]	Max Geom. Mean MFI @ 100 nM [5]
H2aM7795N (antibody, mouse IgG2a, V domains shown) VH: EVQVVESGGGLVEPGRSLRLSCKASGFTFDDYAMHWVRQTPGKALEWVSGINWSGNNIGYADSVKGRFTISKDDAKNSLYLQMNSLRPEDTALYYCTKDISITGTLDAFDVWGQGTMVTVSS VL: DIQMTQSPISVSASVGDRVTITCRASQGISNWLAWYQQKPGIAPKLLIYSASSLQSGVPSRFRGSGSGTDFTLTIGSLQPEDFATYYCQQAHSFPLTFGGGTKVEIK	2.8 fold	817 MFI				
H4H7795N2 (antibody, human IgG4 S228P, kappa, V domains shown) VH: EVQVVESGGGLVEPGRSLRLSCKASGFTFDDYAMHWVRQTPGKALEWVSGISWSGNNIGYADSVKGRFTISKDDAKNSLYLQMNSLRPEDTALYYCTKDISITGTLDAFDVWGQGTMVTVSS VL: DIQMTQSPISVSASVGDRVTITCRASQGISNWLAWYQQKPGIAPKLLIYSASSLQSGVPSRFRGSGSGTDFTLTIGSLQPEDFATYYCQQAHSFPLTFGGGTKVEIKR			15200 MFI			
H1M7789N (antibody, mouse IgG1, V domains shown) VH: EVQLLESGGGLVQPGGSLRLSCSASGFTFSSYTMNWVRQAPGKGLEWVSGISDTGGNTYYTDSVKGRFTVSRDNSKNTLSLQMNSLRAEDTAVYYCAKDQGGSYPYYFHYWGQGSLVTVSS VL: DIQMTQSPSSLSASVGDRVTITCRASQSISSYLIWYQQKPGTAPKFLIYAASSLQSGVPSRFSGCGSGTDFTLTISSLQPEDFATYYCQQSYSTPPITFGQGTRLEIK	92.3 fold	24200 MFI	35600 MFI			
H2aM7780N (antibody, mouse IgG2a, V domains shown) VH: QVQLVESGGGVVQSGRSLRLSCAASGFTFSSYGMHWVRQAPGKGLEWVAVIWYDGSNIYYSDSVKGRFTISRANSKNTLYLQMNSLRAEDTAVYYCARPGHWNYFFEYWGQGTLVTVSS VL: DIQMTQSPSSLSASVGDRVTITCRASQSINNYLNWYQQKPGKAPKLLIYTASSLQSGVPSRFSGSGSGTDFTLTISSLQPEDFATYYCQQSYSTPPLTFGQGTQLEIK	73.8 fold	23700 MFI		1.69 nM	18400 MFI	
H2aM7796N (antibody, mouse IgG2a, V domains shown) VH: QVQLVESGGGVVQPGRSLRLSCAASGFTFSSYGMHWVRQAPGKGLEWVAIIWSDGDSEYNLDSVKGRFTISRDNSKNTLYLQMNSLRVEDSAVYYCARDRDLEDIWGQGTMVTVSS VL: DIQMTQSPSSLSASVGDRVTITCRASQGIRNDLGWYQQKPGKAPKRLIYAASNLQSGVPSRFSGSGSGTEFTLTISSLQPEDFATYYCLQHNSYPLTFGGGTKVEIK	168 fold	49800 MFI		4.81 nM	14100 MFI	624 MFI
H2aM7791N (antibody, mouse IgG2a, V domains shown) VH: QMQLQQWGAGLLKPSETLSLTCVVYGGSLNGYYWSWIRQSPGKGLEWIGEIDHSGSTNYNPSLKNRVTMSVDTSKIQFSLKLTSVTVADTAVYYCAREGLLPFDYWGQGTLVTVSS VL: EIVLTQSPGTLSLSPGERVTLSCRASQSVYSNYLAWYQQNPGQAPRLLIYAASNRATGIPDRFSGSGSGTDFTLTISRLEPEDFAVYYCHQYATSPWTFGQGTKVEIK	18 fold	4950 MFI				1400 MFI
H2aM7798N (antibody, mouse IgG2a, V domains shown) VH: EVQLLESGGVLVQPGGSLRLSCAASGFTFSNFGMTWVRQAPGKGLEWVSGISGGGRDTYFADSVKGRFTISRDNSKNTLYLQMNSLKGEDTAVYYCVKWGNIYFDYWGQGTLVTVSS VL: DIQMTQSPSSLSASVGDSITITCRASLSINTFLNWYQQKPGKAPNLLIYAASSLHGGVPSRFSGSGSGTDFTLTIRTLQPEDFATYYCQQSSNTPFTFGPGTVVDFR	78.1 fold	23400 MFI		0.0698 nM	20900 MFI	
H4H7798N (antibody, human IgG4 S228P, kappa, V domains shown) VH: EVQLLESGGVLVQPGGSLRLSCAASGFTFSNFGMTWVRQAPGKGLEWVSGISGGGRDTYFADSVKGRFTISRDNSKNTLYLQMNSLKGEDTAVYYCVKWGNIYFDYWGQGTLVTVSS VL: DIQMTQSPSSLSASVGDSITITCRASLSINTFLNWYQQKPGKAPNLLIYAASSLHGGVPSRFSGSGSGTDFTLTIRTLQPEDFATYYCQQSSNTPFTFGPGTVVDFRR				0.509 nM	20300 MFI	
